Tests used:
[1] = biological target: recombinant UBE3A protein (Homo sapiens (Human)) (UniProt Q05086); assay: 3-step Simoa; capture GTX; UBE3A 125 ng/ml
[2] = biological target: recombinant UBE3A protein (Homo sapiens (Human)) (UniProt Q05086); assay: 2-step Simoa; capture GTX; UBE3A 0.122 ng/ml
[3] = biological target: recombinant UBE3A protein (Homo sapiens (Human)) (UniProt Q05086); assay: Simoa; capture GTX; SBG 150 pm; UBE3A 0.800 ng/ml
[4] = biological target: recombinant UBE3A protein (Homo sapiens (Human)) (UniProt Q05086); assay: Simoa; capture GTX; 3E5 0.1 ug/ml; UBE3A 0.00128 ng/ml
[5] = biological target: recombinant UBE3A protein (Homo sapiens (Human)) (UniProt Q05086); assay: Simoa; capture GTX; 3E5 0.8 ug/ml; UBE3A 0.00640 ng/ml
[6] = biological target: recombinant UBE3A protein (Homo sapiens (Human)) (UniProt Q05086); assay: Simoa head-to-head, Table 11; capture GTX; UBE3A 0.80 ng/ml
[7] = biological target: recombinant UBE3A protein (Homo sapiens (Human)) (UniProt Q05086); assay: Simoa head-to-head, Table 10; capture MS 2F6; UBE3A 20.0 ng/ml
[8] = biological target: recombinant UBE3A protein (Homo sapiens (Human)) (UniProt Q05086); assay: 3-step Simoa, 120 min bead step; capture GTX; UBE3A 0.800 ng/ml
[9] = biological target: recombinant UBE3A protein (Homo sapiens (Human)) (UniProt Q05086); assay: Simoa; capture GTX, no helper beads; 3E5 0.4 ug/ml; UBE3A 4.00 ng/ml

UniProt Q05086, sequence (Q05086 whole entry): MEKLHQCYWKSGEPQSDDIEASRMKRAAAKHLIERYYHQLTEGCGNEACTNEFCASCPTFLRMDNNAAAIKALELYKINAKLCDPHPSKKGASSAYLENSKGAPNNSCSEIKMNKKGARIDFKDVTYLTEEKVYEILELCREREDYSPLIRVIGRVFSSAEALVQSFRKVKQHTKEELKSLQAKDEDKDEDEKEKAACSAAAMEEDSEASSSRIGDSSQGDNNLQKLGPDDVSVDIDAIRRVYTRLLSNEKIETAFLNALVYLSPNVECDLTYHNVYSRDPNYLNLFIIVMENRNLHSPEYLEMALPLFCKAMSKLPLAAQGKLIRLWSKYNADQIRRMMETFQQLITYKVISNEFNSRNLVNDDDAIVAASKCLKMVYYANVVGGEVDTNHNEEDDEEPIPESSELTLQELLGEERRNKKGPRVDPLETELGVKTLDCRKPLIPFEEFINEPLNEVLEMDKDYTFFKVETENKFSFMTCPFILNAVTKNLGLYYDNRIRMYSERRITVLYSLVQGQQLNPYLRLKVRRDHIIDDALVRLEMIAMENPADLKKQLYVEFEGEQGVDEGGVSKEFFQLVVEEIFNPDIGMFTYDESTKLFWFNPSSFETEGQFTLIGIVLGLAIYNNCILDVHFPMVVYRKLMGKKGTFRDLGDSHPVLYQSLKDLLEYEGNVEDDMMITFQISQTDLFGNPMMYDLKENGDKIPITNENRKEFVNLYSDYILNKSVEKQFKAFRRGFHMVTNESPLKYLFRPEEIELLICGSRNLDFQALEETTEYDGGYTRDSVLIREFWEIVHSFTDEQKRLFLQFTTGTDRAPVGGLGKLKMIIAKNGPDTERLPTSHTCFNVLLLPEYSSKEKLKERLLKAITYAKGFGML

Question: How did the AEB1 [1] turn out when NB500-240 (Novus) (antibody) was run?
Answer: The AEB1 was 0.122.

Question: What about the AEB2 [1] of the same substance?
Answer: The AEB2 was 0.122.

Question: What about the Ave AEB [1] of the same substance?
Answer: The Ave AEB was 0.122.

Question: And the Signal to Background [1]?
Answer: Its Signal to Background is 55.8.

Question: And the AEB1 [2]?
Answer: Its AEB1 is 0.004.

Question: And the AEB2 [2]?
Answer: Its AEB2 is 0.0037.

Question: And the Ave AEB [2]?
Answer: The Ave AEB was 0.0039.

Question: And the Signal to Background [2]?
Answer: The Signal to Background was 1.18.

Question: How did the AEB1 [3] turn out when “anti-UBE3A antibody 3E5 (SAB1404508-100 ug, Millipore-Sigma)” was run?
Answer: Its AEB1 is 0.271.

Question: What about the AEB2 [3] of the same substance?
Answer: Its AEB2 is 0.285.

Question: And the AEB3 [3]?
Answer: The AEB3 was 0.279.

Question: And the Average AEB [3]?
Answer: The Average AEB was 0.278.

Question: And the Signal to Background [3]?
Answer: The Signal to Background was 21.

Question: What about the AEB1 [4] of the same substance?
Answer: Its AEB1 is 0.0242.

Question: And the AEB2 [4]?
Answer: The AEB2 was 0.0239.

Question: And the AEB3 [4]?
Answer: The AEB3 was 0.0247.

Question: What about the Average AEB [4] of the same substance?
Answer: Its Average AEB is 0.0243.

Question: And the Signal to Background [4]?
Answer: Its Signal to Background is 1.26.

Question: And the AEB1 [5]?
Answer: The AEB1 was 0.114.

Question: And the AEB2 [5]?
Answer: Its AEB2 is 0.127.

Question: What about the AEB3 [5] of the same substance?
Answer: Its AEB3 is 0.117.

Question: And the Average AEB [5]?
Answer: Its Average AEB is 0.12.

Question: What about the Signal to Background [5] of the same substance?
Answer: The Signal to Background was 0.976.

Question: What about the AEB1 [6] of the same substance?
Answer: The AEB1 was 0.0916.

Question: What about the AEB2 [6] of the same substance?
Answer: The AEB2 was 0.0961.

Question: And the Ave AEB [6]?
Answer: Its Ave AEB is 0.0939.

Question: What about the Signal to Background [6] of the same substance?
Answer: The Signal to Background was 11.5.

Question: What about the AEB1 [7] of the same substance?
Answer: Its AEB1 is 0.514.

Question: What about the AEB2 [7] of the same substance?
Answer: Its AEB2 is 0.552.

Question: What about the Ave AEB [7] of the same substance?
Answer: The Ave AEB was 0.533.

Question: And the Signal to Background [7]?
Answer: The Signal to Background was 39.4.

Question: What about the AEB1 [8] of the same substance?
Answer: The AEB1 was 0.151.

Question: What about the AEB2 [8] of the same substance?
Answer: The AEB2 was 0.154.

Question: What about the Ave AEB [8] of the same substance?
Answer: The Ave AEB was 0.152.

Question: What about the Signal to Background [8] of the same substance?
Answer: Its Signal to Background is 89.4.

Question: What about the AEB1 [9] of the same substance?
Answer: Its AEB1 is 1.1.

Question: What about the AEB2 [9] of the same substance?
Answer: Its AEB2 is 1.11.

Question: What about the Average AEB [9] of the same substance?
Answer: The Average AEB was 1.11.

Question: What about the Signal to Background [9] of the same substance?
Answer: The Signal to Background was 56.7.
